Here are results for one molecule from paper PMC11381523 (Nature Communications, 2024).

This experiment has as its target Rpb2 subunit of Komagataella phaffii RNA polymerase II (TAP-tagged) (Komagataella phaffii, UniProt F2QTX9 1-1227). In words: cryo-EM structure.

B1: Komagataella phaffii Rai1 (E213A/D215A), kpRai1(2A) (enzyme)
chain: MSKEKILPLAARSKKAMLRQPKQVAYFSRDLNYKTHPDRSNLSYYYLPDGDIDNSIDLSVGSKHFLLGDSVELSKLDPILLALKEIEKESGAKTKDRIITWRGIMRKLLTLPYDSEEDFVLDVVSFDGQLFIQFNVPYLKSKDVQKQGDTEFHKKLQFSGYKFEKMATLPKPWPECTRKEIDSRAKSKCNNIEQYGAIVRTGISRIKILIGGAVACTADYYDENDPLSRYIELKTTRTINQYKDMIAFEKKLFRTWAQCFLLGIPKIIYGFRDDNCILRTVEEFSTNDIPLMVKNNPLNEQPKKENCYMSSINFYGAVVEWLNESVKDDQVWKLSYAKRNRQYLVLKEVTDENEKQQIVDSAIPAWFKEWRSELRNSEGNI
As to B1, the binding result is “binds”.
